Results from patent US20230083670A1.

Assays:
[1] = target: PD-L1 on CHO-PD-L1 cells (human) (UniProt Q9NZQ7); test: flow cytometry cell binding; CHO-PD-L1 cells
CD47 on Jurkat cells = CD47 on Jurkat cells (UniProt Q08722); test: flow cytometry cell binding; Jurkat cells

Chain of PD-L1 on CHO-PD-L1 cells (human) (Q9NZQ7 19-290): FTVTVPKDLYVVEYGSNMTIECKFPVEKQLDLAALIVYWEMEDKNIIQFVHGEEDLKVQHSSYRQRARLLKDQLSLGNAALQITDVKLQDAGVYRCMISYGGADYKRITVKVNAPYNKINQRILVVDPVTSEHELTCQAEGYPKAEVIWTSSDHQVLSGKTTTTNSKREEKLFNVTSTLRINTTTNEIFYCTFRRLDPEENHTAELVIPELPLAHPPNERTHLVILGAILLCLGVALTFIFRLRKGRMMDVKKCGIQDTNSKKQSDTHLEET

| Substance | EC50 [1] [nM] | EC50 (CD47 on Jurkat cells) [nM] |
| --- | --- | --- |
| Atezolizumab | 0.027 | – |
| IMM2505 | 0.0471 | 0.913 |
